In paper PMC10355822 one finds stoichiometry N data, which are given here for 1 substance.

Assay [1] addresses M. polysiphoniae SPARTA (MapSPARTA) complex of MapAgo and MapTIR-APAZ (Maribacter polysiphoniae). Nature of the assay: mass photometry.
The target is the same in assay [2]. Nature of the assay: cryo-EM structure.
Assay [3] shares this target. As to the kind of experiment: cryo-EM structure. This is another data set of the same source.

“And” between values parts separate entries of the source, which are not always exact repeats. Equal values may be shown once.

On to “M. polysiphoniae SPARTA (MapSPARTA) complex of MapAgo and MapTIR-APAZ”, for which the stoichiometry N (in general, the number of molecules, sites or subunits per partner or assembly) in assay [1] was 2 and 4; in assay [2] it was 4; in assay [3], 2.
